This passage reports percent of cells bound results from publication PMC9397949.

The target in the assay is ACE-2 receptor on the surface of Vero E6 cells (African green monkey (endogenous in Vero E6)). As to the kind of experiment: flow cytometry on cells; about 10^6 Vero-E6 cells blocked with FACS buffer and 5% normal mouse serum, incubated with RBD (8 ug/mL in the methods; different concentrations in the results) 2 h at 37 C; detected with rabbit monoclonal anti-S1 and Alexa Fluor 488 anti-rabbit IgG; percent of positive cells.

For the substance “commercially available recombinant RBD expressed in insect cells (Cat No. Z03479, GenScript) (from UniProt P0DTC2) (domain or fragment)”, the percent of cells bound turned out to be 78%. Regarding “Recombinant SARS-CoV-2 Spike RBD (Pro330-Ser530), purified (from UniProt P0DTC2 330-530) (domain or fragment)”, the percent of cells bound stood at 60%.
